Reference: patent US8277440B2, “Implantable device for controlled, extended delivery of parathyroid hormone” (MicroCHIPS, Inc., priority 2002, dated 2012)

Tests used:
skeletal homeostasis = details: cited from earlier work
[1] = Solubility of PTH as a function of pH; type: physicochemical
Description: While not being bound by any theory, it is believed that this phenomena was due to the salts (e.g., MW ˜60) in the PTH solution diffusing into the physiological solution at a rate that exceeded the rate of diffusion of the PTH (e.g., MW ˜4000) due, for example, to the molecular weight (MW) dependence of diffusion rate, to such an extent that the pH of the PTH solution increased to a point exceeding that required to keep the PTH in solution. (For example, at pH 3, the PTH has a solubility of about 100 μg/ml and at pH 7, the PTH has a solubility of about 20 μg/ml.)

## parathyroid hormone [PTH]
Skeletal homeostasis; daily dose given as one single injection
  bone volume: dose dependent increase
Skeletal homeostasis; in vivo
  effect on serum calcium: dose dependent increase
  effect on serum calcium levels: practically no effect
Skeletal homeostasis; same daily dose by continuous infusion with subcutaneous mini-osmotic pump
  result on bone: bone loss
[1]; pH 3
  solubility: about 100 μg/ml
[1]; pH 7
  solubility: about 20 μg/ml
